The record followed here is patent US20240240160A1, “NOVEL OLIVETOL SYNTHASES FOR C[…]” (priority 2021, published 2024).

Data set [1] deals with AAZ32094.1 from Oncidium hybrid cultivar (SEQ ID NO:2). The data set is described as follows: Product inhibition assay with butyryl-CoA and malonyl-CoA. Format: biochemical. As for the experimental part: (§1) Assays were performed in a total volume of 50 μL in 100 mM Tris, pH 7.5 buffer containing 100 μM malonyl-CoA; 100 µM hexanoyl-CoA; a malonyl-CoA regenerating system comprising malonyl-CoA synthetase, excess malonate, and ATP; and excess purified olivetolic acid cyclase (OAC). The major product in this assay was olivetolic acid (OLA), and the triketide pentyl diacetic acid lactone (PDAL) was a side product. N-His-tagged purified enzymes were assayed under these assay conditions at enzyme concentrations and reaction times suitable for initial rate measurements of product formation. Reactions were initiated by addition of the PKS, then incubated for 30 min. Subsequently, 10 μL of reaction solution was removed and quenched into 15 volumes of 75% acetonitrile containing 0.1% formic acid and internal standards, then centrifuged to pellet denatured protein. Supernatants were transferred to fresh plates for LC-MS analysis of OLA, olivetol (OL), and PDAL as described in the Method section above.
(§2) Assays were performed as described in Example 3 with the following exception: instead of hexanoyl-CoA (C6), butyryl-CoA (C4) was used as substrate along with malonyl-CoA, in order to evaluate the inhibitory effect of the products with hexanoyl-CoA (i.e., OLA, OL and PDAL) on the activity of the enzymes. Accordingly, the products in this assay were the tetraketides divarinic acid (DVA) and divarinol (DVL) and the triketide propyl diacetic acid lactone (propyl-DAL) (see FIG. 4). The rates to form these products were measured in the presence of various concentrations of OLA, OL, and PDAL.

In data set [2] the test system is QDX46968.1 from Anoectochilus roxburghii (SEQ ID NO:6). Described as above. The data set is classed as biochemical. As for the experimental part: as §1, §2
The target in a further data set is T1, OLS from C. sativa (Cannabis sativa, UniProt B1Q2B6).
T1 construct: made in house
T1 sequence (B1Q2B6 1-385): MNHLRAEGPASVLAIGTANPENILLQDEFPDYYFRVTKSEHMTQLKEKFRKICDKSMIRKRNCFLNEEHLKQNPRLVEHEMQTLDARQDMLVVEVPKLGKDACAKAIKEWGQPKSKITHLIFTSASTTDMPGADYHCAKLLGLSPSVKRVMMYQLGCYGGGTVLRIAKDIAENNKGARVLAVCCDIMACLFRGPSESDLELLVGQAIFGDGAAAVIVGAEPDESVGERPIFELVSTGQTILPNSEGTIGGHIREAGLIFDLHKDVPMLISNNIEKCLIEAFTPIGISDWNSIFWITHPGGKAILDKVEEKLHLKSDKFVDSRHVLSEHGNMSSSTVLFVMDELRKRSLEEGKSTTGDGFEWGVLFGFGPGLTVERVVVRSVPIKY
The data set is described as above. Format: biochemical. The note with it: for amount of DVA+DVL formed by the enzyme: at 1 mM of the added product, butyryl-CoA substrate; for enzyme activity: at 2 mM of the added product. As to the method:
as §1, §2

In data set [3] the test system is hexanoyl-CoA and malonyl-CoA. The data set is described as follows: Specific activity assay of purified type-III polyketide synthases (OLA formation in presence of OAC). Format: biochemical. The note with it: hexanoyl-CoA and malonyl-CoA in the presence of OAC; FIG. 3. As to the method:
In this Example, the specific activities of three previously uncharacterized type-III polyketide synthases (PKS) to form olivetolic acid from hexanoyl-CoA and malonyl-CoA in the presence of olivetolic acid cyclase (OAC) were determined and compared to the olivetol synthase (OLS) from C. sativa.
as §1

In data set [4] the test system is E. coli derivative strain which overexpressed an acyl-CoA synthetase (fadD) gene and expressed an olivetolic acid cyclase (OAC) from Cannabis sativa. In words: OL, OLA and PDAL production in E. coli from genome-integrated Type-III PKS genes. The data set is classed as cell-based. The note with it: for Total: OL + OLA + PDAL; for OL / OLA / PDAL: constitutive promoter, 4 mM hexanoic acid. As for the experimental part: To test olivetolic acid production in E. coli, strains comprising a putative OLS gene and an OAC gene from C. sativa were inoculated in multi-well plates containing LB supplemented with 1% glucose and appropriate concentrations of antibiotics. After 6 hours of cultivation at 32° C., the cells were transferred with a 10% inoculum to a P-limited seed medium (see Table 2) and cultivated for ˜18 hours at 32° ° C. to reach an OD of 2.0-4.0. The cultures were transferred with a 20% inoculum in a P-minimal medium (see Table 3) supplemented with 2% glucose and appropriate concentrations of antibiotics. After 3 hours of cultivation at 32° C., the culture was spiked with 4 mM hexanoic acid (˜OD 1.5-2.0). The resulting cultures were then harvested at either 3 hours or 21 hours post hexanoic acid spike; a final OD was taken. 300 μL of butyl acetate containing 500 mg/L undecanoic acid was added to each multi-well plate. The plates were then vortexed for 30 minutes at 1500 rpm and centrifuged for 10 minutes at 4500 rpm. 50 μL of organic layer was transferred to a 96-well plate and derivatized with 50 μL of N,O-Bis(trimethylsilyl)trifluoroacetamide (BSTFA). The plate was then incubated at room temperature for 2 hours to allow for complete derivatization. The samples were then run on GC-FID for analytical quantification of olivetolic acid (OLA), olivetol (OL), PDAL, and hexanoic acid.
Olivetol, PDAL, OLA, HTAL, CBGA and combinations thereof were analyzed by LCMS or LCMS/MS methods using C18 reversed phase chromatography coupled to either EXACTIVE™ (ThermoFisher) or QTRAP® 4500 (Sciex) mass spectrometers.
For reversed phase LCMS, compounds were identified by their LC retention times and MRM transitions specific to the compounds. LCMS/MS analysis was conducted on a Shimadzu UHPLC system coupled with AB Sciex QTRAP 4500 mass spectrometer. Agilent Eclipse XDB C18 column (4.6×3.0 mm, 1.8 μm) was used with a 1-min gradient elution at 1 mL/min using water containing 0.1% ammonia acetate as mobile phase A and 90% methanol containing 0.1% ammonia acetate as mobile phase B. The LC column temperature was maintained at 45° C. Negative ionization mode was used for all the analytes.
Three of the type-III PKS genes from Example 1 were integrated under control of a constitutive promoter into an E. coli derivative strain which overexpressed an acyl-CoA synthetase (fadD) gene and expressed an olivetolic acid cyclase (OAC) from Cannabis sativa.
The in vivo assay procedure and analytical methods were performed as described above.

Data set [5] shares this test system. In words: OL, OLA and PDAL production in E. coli from plasmid-expressed Type-III PKS genes. The data set is classed as cell-based. The note with it: gene on plasmid; for Total: OL + OLA + PDAL; for OL / OLA / PDAL: constitutive promoter, culture spiked with 4 mM hexanoic acid. The method in brief: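 E. coli strains expressing codon-optimized Type-III PKS genes (constitutive promoter) plus fadD overexpression and C. sativa OAC, grown at 32° C in P-minimal medium with 2% glucose, spiked with 4 mM hexanoic acid; harvested 3 h or 21 h post-spike. Butyl acetate extracts BSTFA-derivatized, OLA/OL/PDAL quantified by GC-FID.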

Where [6] appears, read: increasing concentrations of the added product.
Where [7] appears, read: at 1 mM OLA, butyryl-CoA substrate.

Take `CCCCCc1cc(O)cc(=O)o1` [PDAL, pentyl diacetic acid lactone]: the “effect on activity of the enzyme” value in data set [1] (setting [6]) and in data set [2] (setting [6]) was “not inhibited” each time. Besides, the “inhibition of the activity of OLS from C. sativa” value on OLS from C. sativa (setting [6]) is reported as “inhibitory, but to a somewhat lesser extent”.
Regarding `CCCCCc1cc(O)cc(O)c1` [OL, olivetol], in data set [1] (setting [6]), the “effect on formation of the tetraketide products (DVL+DVA)” value (from here on “effect on formation”) is “not inhibited” and the “effect on the triketide product propyl-DAL” value is on record as “decreased”. Further, in data set [2] (setting [6]), the “effect on formation” value was “not inhibited” and the “effect on the triketide product propyl-DAL” value is reported as “decreased”. Moreover, on OLS from C. sativa, the “amount of DVA+DVL formed by the enzyme” value turned out to be 2 µM and the enzyme activity result is “almost completely inactive”.
Consider `CCCCCc1cc(O)cc(O)c1C(=O)O` [OLA, olivetolic acid], for which, in data set [1] (setting [7]), the “amount of DVA+DVL formed” value is given as “about 9 μM” and the “amount of the triketide propyl-DAL” value fell in the range of 3 to 5 µM. Further, in data set [1] (setting [6]), the “effect on formation” value is given as “not inhibited, but rather stimulated” and the “effect on the triketide product propyl-DAL” value is “inhibited”. Further, in data set [2] (setting [7]), the “amount of DVA+DVL formed” value was “about 9 μM” and the “amount of the triketide propyl-DAL” value was 3 to 5 µM. Besides, in data set [2] (setting [6]), the “effect on formation” value is “not inhibited, but rather stimulated” and the “effect on the triketide product propyl-DAL” value was “inhibited”. In addition, at OLS from C. sativa, the “amount of DVA+DVL formed by the enzyme” value was determined as 1.5 µM and the enzyme activity result was “almost completely inactive”.

B1: AAZ32094.1: Type-III PKS enzyme from Oncidium hybrid cultivar (protein)
chain: MPSLESVKNAKRAEGFASILAIGRANPEHFIEQSSYPDFFFRVTNSEHLVALKKKFQRICDKTAIRKRHFAWNEELLTTNSCFQTFMGNSLNVRQEFAIREIPKLGAQAANKAIQEWGQPKSRITHLIFCTTSGMDLPGADYQLTEILGLNPNVERVMLYQQGCFAGGTTLRLAKCLAESRKGARVLVVCAETTTVLFRAPSEEHQDDLVTQALFADGASALIVGADPDEAAHERASFIIVSTSQVLLPDSAGAIGGHVSEGGLLATLHRDVPQIVSKNVGKCLEEAFTPLGISDWNSIFWVPHPGGRAILDQIEERVGLKPEKLFISRHVLAEYGNMSSVCVHFALDEMRKRSAKEGKATTGEGLDWGVLFGFGPGLTVETVVLHSVPVTN
modifications: Oncidium hybrid cultivar; (1)..(392) AAZ32094.1
As for B1, the “specific activity to form olivetolic acid compared with OLS from C. sativa” value in data set [3] was “higher specific activities”. Moreover, in data set [4], the “products produced by strains with chromosomally expressed enzyme” value was “produced olivetol (OL), olivetolic acid (OLA) and pentyl diacetic acid lactone (PDAL)”; the Total is 1038 µM; the OL was 355 µM; the OLA came to 534 µM. Further, the PDAL in data set [4] turned out to be 149 µM. Also, in data set [5], the Total was determined as 1781 µM, the “levels of OLA relative to the E. coli strain with OLS from C. sativa” value is on record as “over two-fold”, the OL turned out to be 672 µM and the OLA was 751 µM. Besides, the PDAL in data set [5] was 358 µM.

B2: AIM58716.1: Type-III PKS enzyme from Cymbidium hybrid cultivar (protein)
chain: MPSLESVKKSNRADGFASILAIGRANPENFIEQSTYPDFFFRVTNSEHLVNLKKKFQRICDKTAIRKRHFVWNEELLNANPCLGTFMDNSLNVRQEFAIREIPKLGAEAATKAIQEWGQPKSRITHLIFCTTSGMDLPGADYQLTQILGLNPNIERVMLYQQGCFAGGTTLRLAKCLAESRKGARVLVVCAETTAVLFRAPSEEHQDDLVTQALFADGASALIVGADPDETAHERASFVIVSTSQVLLPDSAGAIGGHVSEGGLIATLHRDVPQIVSKNVGKCLEEAFTPLGISDWNSIFWVPHPGGRAILDQVEERVGLKPEKLIVSRHVLAEYGNMSSVCVHFALDEMRKRSKKEGKATTGEGLDWGVLFGFGPGLTVETVVLHSVPI
modifications: Cymbidium hybrid cultivar; (1)..(390) AIM58716.1
Consider B2, for which, in data set [4], the “products produced by strains with chromosomally expressed enzyme” value is “produced olivetol (OL), olivetolic acid (OLA) and pentyl diacetic acid lactone (PDAL)”; the Total was 927 µM; the OL was 249 µM; the OLA was 472 µM. Besides, the PDAL in data set [4] was found to be 206 µM. In data set [5], the Total worked out at 1045 µM, the OL was determined as 427 µM, the OLA turned out to be 436 µM and the PDAL stood at 181 µM.
